The values below come from patent publication US20240101684A1 (AIMED BIO, published 2024).

Sequences and labels used below:
B1: F309#SSM023 (antibody, V domains shown)
VH: EVQLLESGGGLVQPGGSLRLSCAASGFTFSSYDMSWVRQAPGKGLEWVSGIYSGDGSIYYADSVKGRFTISRDNSKNTLYLQMNSLRAEDTAVYYCAKDGPMNEMSRFDYWGQGTLVTVSS
VL: QSVLTQPPSASGTPGQRVTISCSGSSSNIGNNYVSWYQQLPGTAPKLLIYADSKRPSGVPDRFSGSKSGTSASLAISGLRSEDEADYYCASWDYSLSGYVFGGGTKLTVL
notes: Combination variant of F309; also called #SSM23
B2: F309#SSM002 (antibody, V domains shown)
VH: EVQLLESGGGLVQPGGSLRLSCAASGFTFSSYDMSWVRQAPGKGLEWVSGIYSGDGSIYYADSVKGRFTISRDNSKNTLYLQMNSLRAEDTAVYYCAKDGPTNEMSRFDYWGQGTLVTVSS
VL: QSVLTQPPSASGTPGQRVTISCSGSSSNIGNNYVSWYQQLPGTAPKLLIYADSKRPSGVPDRFSGSKSGTSASLAISGLRSEDEADYYCASWDYSLSGYVFGGGTKLTVL
B3: F309#SSM003 (antibody, V domains shown)
VH: EVQLLESGGGLVQPGGSLRLSCAASGFTFSSYDMSWVRQAPGKGLEWVSGIYSGDGSIYYADSVKGRFTISRDNSKNTLYLQMNSLRAEDTAVYYCAKDAPMNEMSRFDYWGQGTLVTVSS
VL: QSVLTQPPSASGTPGQRVTISCSGSSSNIGNNYVSWYQQLPGTAPKLLIYADSKRPSGVPDRFSGSKSGTSASLAISGLRSEDEADYYCASWDYSLSGYVFGGGTKLTVL
B4: F309#SSM005 (antibody, V domains shown)
VH: EVQLLESGGGLVQPGGSLRLSCAASGFTFSSYDMSWVRQAPGKGLEWVSGIYSGDGSIYYADSVKGRFTISRDNSKNTLYLQMNSLRAEDTAVYYCAKDAPTNEPSRFDYWGQGTLVTVSS
VL: QSVLTQPPSASGTPGQRVTISCSGSSSNIGNNYVSWYQQLPGTAPKLLIYADSKRPSGVPDRFSGSKSGTSASLAISGLRSEDEADYYCASWDYSLSGYVFGGGTKLTVL
B5: F309#SSM007 (antibody, V domains shown)
VH: EVQLLESGGGLVQPGGSLRLSCAASGFTFSSYDMSWVRQAPGKGLEWVSGIYSGDGSIYYADSVKGRFTISRDNSKNTLYLQMNSLRAEDTAVYYCAKDAPTNEMSRFDYWGQGTLVTVSS
VL: QSVLTQPPSASGTPGQRVTISCSGSSSNIGNNYVSWYQQLPGTAPKLLIYADSKRPSGVPDRFSGSKSGTSASLAISGLRSEDEADYYCAVWDYSLSGYVFGGGTKLTVL
B6: F309#SSM008 (antibody, V domains shown)
VH: EVQLLESGGGLVQPGGSLRLSCAASGFTFSSYDMSWVRQAPGKGLEWVSGIYSGDGSIYYADSVKGRFTISRDNSKNTLYLQMNSLRAEDTAVYYCAKDAPTNEMSRFDYWGQGTLVTVSS
VL: QSVLTQPPSASGTPGQRVTISCSGSSSNIGNNYVSWYQQLPGTAPKLLIYADSKRPSGVPDRFSGSKSGTSASLAISGLRSEDEADYYCASWDYSLTGYVFGGGTKLTVL
B7: F309#SSM006 (antibody, V domains shown)
VH: EVQLLESGGGLVQPGGSLRLSCAASGFTFSSYDMSWVRQAPGKGLEWVSGIYSGDGSIYYADSVKGRFTISRDNSKNTLYLQMNSLRAEDTAVYYCAKDAPTNEESRFDYWGQGTLVTVSS
VL: QSVLTQPPSASGTPGQRVTISCSGSSSNIGNNYVSWYQQLPGTAPKLLIYADSKRPSGVPDRFSGSKSGTSASLAISGLRSEDEADYYCASWDYSLSGYVFGGGTKLTVL
B8: F309#SSM010 (antibody, V domains shown)
VH: EVQLLESGGGLVQPGGSLRLSCAASGFTFSSYDMSWVRQAPGKGLEWVSGIYSGDGSIYYADSVKGRFTISRDNSKNTLYLQMNSLRAEDTAVYYCAKDAPTNEMSRFDYWGQGTLVTVSS
VL: QSVLTQPPSASGTPGQRVTISCSGSSSNIGNNYVSWYQQLPGTAPKLLIYADSKRPSGVPDRFSGSKSGTSASLAISGLRSEDEADYYCASWDYSLEGYVFGGGTKLTVL

One assay deals with T1, human FGFR3 IIIb recombinant protein (1264-FR-050, R&D) (human, UniProt P22607-2 23-377).
T1 construct: Bought recombinant antigen; also called rhFGFR3-IIIb; FGFR3-IIIb (Human)
T1 sequence (looked up): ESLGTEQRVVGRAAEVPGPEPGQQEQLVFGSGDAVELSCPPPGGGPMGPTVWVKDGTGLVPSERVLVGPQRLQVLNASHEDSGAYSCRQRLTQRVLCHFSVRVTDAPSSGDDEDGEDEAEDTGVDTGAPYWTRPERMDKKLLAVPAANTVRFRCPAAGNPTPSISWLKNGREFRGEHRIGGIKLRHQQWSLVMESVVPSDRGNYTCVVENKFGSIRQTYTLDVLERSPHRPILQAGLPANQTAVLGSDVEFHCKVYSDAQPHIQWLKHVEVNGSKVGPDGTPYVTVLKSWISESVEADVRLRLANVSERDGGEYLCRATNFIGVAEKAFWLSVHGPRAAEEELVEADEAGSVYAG
Briefly: direct-binding ELISA on rhFGFR3-IIIb, 2' screening, plate 2 (row head prints IC50).
For orientation: EC50 means the concentration that produces a half-maximal response. For the molecule B1, the EC50 worked out at 3.1 nM.

The target of another assay is T1, human FGFR3 IIIb recombinant protein …. Briefly: direct-binding ELISA on rhFGFR3-IIIb, 1' screening (row head prints IC50).
In the case of B2, the EC50 came to 0.325 nM.

Regarding B3, the EC50 amounted to 0.385 nM.

On to B4, for which the EC50 was found to be 2.2 nM.

On to B5, for which the EC50 worked out at 0.8 nM.

In the case of B6, the EC50 was determined as 1.36 nM.

With B7, the EC50 turned out to be 0.417 nM.

For the molecule B8, the EC50 was found to be 0.534 nM.
